pKd: −log10 of the molar value. “And” between values parts separate entries of the source, which are not always exact repeats. Identical values can stand only once.
Key:
[1] = target: TRAIL-R1-Fc (human TRAIL-R1 ectodomain Fc fusion) (human) (UniProt O00220); test: SPR kinetic fit, 1:1 Langmuir; TRAIL-R1-Fc captured, UL141 analyte
[2] = target: TRAIL-R2-Fc (human TRAIL-R2 aa 58-184, thrombin site, human IgG1 Fc), wild type (human) (UniProt O14763); test: SPR, WT TRAIL-R2-Fc captured, UL141 as analyte
[3] = target: TRAIL-R2-Fc (human TRAIL-R2 aa 58-184, thrombin site, human IgG1 Fc), wild type (human) (UniProt O14763); test: SPR kinetic fit, 1:1 Langmuir; TRAIL-R2-Fc captured, UL141 analyte
[4] = target: CD155-Fc (CD155 / poliovirus receptor Fc fusion) (UniProt P15151); test: SPR, KDave
[5] = target: TRAIL-R2-Fc (human TRAIL-R2 aa 58-184, thrombin site, human IgG1 Fc), wild type (human) (UniProt O14763); test: SPR, KDave
[6] = target: TRAIL-R2-Fc E78A/D109A (human) (UniProt O14763); test: SPR, mutant TRAIL-R2-Fc captured, UL141 as analyte
[7] = target: TRAIL-R2-Fc R154A (human) (UniProt O14763); test: SPR, mutant TRAIL-R2-Fc captured, UL141 as analyte
[8] = target: TRAIL-R2-Fc M152A/R154A/K155A (human) (UniProt O14763); test: SPR, mutant TRAIL-R2-Fc captured, UL141 as analyte
[9] = target: TRAIL-R2-Fc K155A (human) (UniProt O14763); test: SPR, mutant TRAIL-R2-Fc captured, UL141 as analyte
[10] = target: TRAIL-R2-Fc L110A/L114A (human) (UniProt O14763); test: SPR, mutant TRAIL-R2-Fc captured, UL141 as analyte
[11] = target: TRAIL-R2-Fc D148A (human) (UniProt O14763); test: SPR, mutant TRAIL-R2-Fc captured, UL141 as analyte
[12] = target: TRAIL-R2-Fc M152A (human) (UniProt O14763); test: SPR, mutant TRAIL-R2-Fc captured, UL141 as analyte
[13] = target: TRAIL-R2-Fc P150A (human) (UniProt O14763); test: SPR, mutant TRAIL-R2-Fc captured, UL141 as analyte
[14] = target: TRAIL-R2-Fc F112A (human) (UniProt O14763); test: SPR, mutant TRAIL-R2-Fc captured, UL141 as analyte
[15] = target: TRAIL-R2-Fc V167A (human) (UniProt O14763); test: SPR, mutant TRAIL-R2-Fc captured, UL141 as analyte
[16] = target: TRAIL-R1-Fc (human TRAIL-R1 ectodomain Fc fusion) (human) (UniProt O00220); test: SPR, steady-state analysis (KDeq); TRAIL-R1-Fc captured, UL141 analyte
[17] = target: TRAIL-R1-Fc (human TRAIL-R1 ectodomain Fc fusion) (human) (UniProt O00220); test: SPR, average of KDeq and kinetic KD (KDave)
[18] = target: CD155-Fc (CD155 / poliovirus receptor Fc fusion) (UniProt P15151); test: SPR kinetic fit, 1:1 Langmuir; CD155-Fc captured, UL141 analyte

TRAIL-R2-Fc R154A (human), sequence (O14763 other isoform, or with tags, fused parts or gaps R154A R154A limits assumed): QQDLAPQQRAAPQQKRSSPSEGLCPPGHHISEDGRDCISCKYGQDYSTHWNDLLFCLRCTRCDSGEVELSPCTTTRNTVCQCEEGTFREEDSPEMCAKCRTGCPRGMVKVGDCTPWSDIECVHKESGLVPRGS
TRAIL-R2-Fc D148A (human), sequence (O14763 other isoform, or with tags, fused parts or gaps D148A D148A limits assumed): as the sequence (O14763 other isoform, or with tags, fused parts or gaps R154A R154A limits assumed) above, with D91A, A97R counted along it
TRAIL-R2-Fc M152A (human), sequence (O14763 other isoform, or with tags, fused parts or gaps M152A M152A limits assumed): as the sequence (O14763 other isoform, or with tags, fused parts or gaps R154A R154A limits assumed) above, with M95A, A97R counted along it
TRAIL-R2-Fc M152A/R154A/K155A (human), sequence (O14763 other isoform, or with tags, fused parts or gaps M152A R154A K155A M152A R154A K155A limits assumed): as the sequence (O14763 other isoform, or with tags, fused parts or gaps R154A R154A limits assumed) above, with M95A, K98A counted along it
TRAIL-R1-Fc (human TRAIL-R1 ectodomain Fc fusion) (human), sequence (O00220 24-239): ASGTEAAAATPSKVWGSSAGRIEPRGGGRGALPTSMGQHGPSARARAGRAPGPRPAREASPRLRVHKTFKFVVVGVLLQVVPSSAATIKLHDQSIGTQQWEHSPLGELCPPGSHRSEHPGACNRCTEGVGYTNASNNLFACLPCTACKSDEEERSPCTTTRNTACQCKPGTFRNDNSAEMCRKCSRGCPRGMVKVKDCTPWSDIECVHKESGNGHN
TRAIL-R2-Fc L110A/L114A (human), sequence (O14763 other isoform, or with tags, fused parts or gaps L110A L114A L110A L114A limits assumed): as the sequence (O14763 other isoform, or with tags, fused parts or gaps R154A R154A limits assumed) above, with L53A, L57A, A97R counted along it
TRAIL-R2-Fc F112A (human), sequence (O14763 other isoform, or with tags, fused parts or gaps F112A F112A limits assumed): as the sequence (O14763 other isoform, or with tags, fused parts or gaps R154A R154A limits assumed) above, with F55A, A97R counted along it
UL141 ectodomain of human cytomegalovirus (HCMV FIX strain), C-terminal poly-histidine tag (ligand), sequence (Q6RJQ3 30-279, tags left off): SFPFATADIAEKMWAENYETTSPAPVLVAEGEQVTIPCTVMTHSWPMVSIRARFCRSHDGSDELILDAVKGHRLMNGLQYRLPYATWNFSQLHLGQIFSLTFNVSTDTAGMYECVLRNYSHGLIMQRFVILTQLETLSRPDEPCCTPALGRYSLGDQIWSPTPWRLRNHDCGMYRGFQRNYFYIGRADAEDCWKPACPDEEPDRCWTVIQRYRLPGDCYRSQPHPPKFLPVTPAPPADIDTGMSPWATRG
TRAIL-R2-Fc E78A/D109A (human), sequence (O14763 other isoform, or with tags, fused parts or gaps E78A D109A E78A D109A limits assumed): as the sequence (O14763 other isoform, or with tags, fused parts or gaps R154A R154A limits assumed) above, with E21A, D52A, A97R counted along it
TRAIL-R2-Fc V167A (human), sequence (O14763 other isoform, or with tags, fused parts or gaps V167A V167A limits assumed): as the sequence (O14763 other isoform, or with tags, fused parts or gaps R154A R154A limits assumed) above, with A97R, V110A counted along it
TRAIL-R2-Fc K155A (human), sequence (O14763 other isoform, or with tags, fused parts or gaps K155A K155A limits assumed): as the sequence (O14763 other isoform, or with tags, fused parts or gaps R154A R154A limits assumed) above, with A97R, K98A counted along it
CD155-Fc (CD155 / poliovirus receptor Fc fusion), sequence (P15151 21-343): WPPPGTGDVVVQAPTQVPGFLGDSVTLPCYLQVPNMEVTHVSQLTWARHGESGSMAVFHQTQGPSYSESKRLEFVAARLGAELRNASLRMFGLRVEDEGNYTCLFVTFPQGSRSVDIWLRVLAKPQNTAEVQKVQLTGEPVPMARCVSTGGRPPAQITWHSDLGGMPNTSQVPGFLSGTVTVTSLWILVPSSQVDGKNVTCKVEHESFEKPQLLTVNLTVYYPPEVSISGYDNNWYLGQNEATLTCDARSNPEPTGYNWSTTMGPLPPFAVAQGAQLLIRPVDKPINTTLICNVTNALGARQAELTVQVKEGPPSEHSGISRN
TRAIL-R2-Fc P150A (human), sequence (O14763 other isoform, or with tags, fused parts or gaps P150A P150A limits assumed): as the sequence (O14763 other isoform, or with tags, fused parts or gaps R154A R154A limits assumed) above, with P93A, A97R counted along it
TRAIL-R2-Fc (human TRAIL-R2 aa 58-184, thrombin site, human IgG1 Fc), wild type (human), sequence (O14763 other isoform, or with tags, fused parts or gaps limits assumed): as the sequence (O14763 other isoform, or with tags, fused parts or gaps R154A R154A limits assumed) above, with A97R counted along it

UL141 ectodomain of human cytomegalovirus (HCMV FIX strain), C-terminal poly-histidine tag (ligand)
pKd [1]: 5.63 | koff [1]: 0.014 s⁻¹ | kon [1]: 6020 M⁻¹ s⁻¹ | pKd [2]: 8.22 and 8.23 | koff [2]: 7.21e-05 s⁻¹ | kon [2]: 12100 M⁻¹ s⁻¹ | pKd [3]: 8.22 | koff [3]: 7.21e-05 s⁻¹ | kon [3]: 12100 M⁻¹ s⁻¹ | pKd [4]: 8.70 | pKd [5]: 8.22 | pKd [6]: 7.22 | fold lower binding than wild type [6]: 10 fold | koff [6]: 0.00151 s⁻¹ | kon [6]: 25000 M⁻¹ s⁻¹ | pKd [7]: 8.20 | koff [7]: 0.000243 s⁻¹ | kon [7]: 38800 M⁻¹ s⁻¹ | pKd [8]: 8.13 | koff [8]: 0.00027 s⁻¹ | kon [8]: 36500 M⁻¹ s⁻¹ | pKd [9]: 8.11 | koff [9]: 0.00038 s⁻¹ | kon [9]: 49100 M⁻¹ s⁻¹ | pKd [10]: 7.37 | fold decrease in binding affinity versus wild type [10]: 7 fold | fold lower binding than wild type [10]: 10 fold | koff [10]: 0.00064 s⁻¹ | kon [10]: 15000 M⁻¹ s⁻¹ | pKd [11]: 7.26 | fold lower binding than wild type [11]: 10 fold | koff [11]: 0.0013 s⁻¹ | kon [11]: 23500 M⁻¹ s⁻¹ | pKd [12]: 8.13 | koff [12]: 0.000382 s⁻¹ | kon [12]: 51000 M⁻¹ s⁻¹ | pKd [13]: 8.08 | koff [13]: 0.000391 s⁻¹ | kon [13]: 47000 M⁻¹ s⁻¹ | pKd [14]: 6.20 | fold lower binding than wild type [14]: 100 fold | koff [14]: 0.00566 s⁻¹ | kon [14]: 8980 M⁻¹ s⁻¹ | pKd [15]: 7.81 | fold lower binding than wild type [15]: 2.5 fold | koff [15]: 0.00048 s⁻¹ | kon [15]: 31000 M⁻¹ s⁻¹ | pKd [16]: 8.64 | pKd [17]: 5.64 | pKd [18]: 8.71 | koff [18]: 0.000346 s⁻¹ | kon [18]: 176000 M⁻¹ s⁻¹

From patent publication US20170088600A1
